The values that follow come from the DeepSol protein solubility set.

The nature of this data set: soluble on expression in E. coli; label from the status in PepcDB or PDB records.
On to “MSLRPSLDAWTKMECVMVKIKTSDGLEGWGEAFGHVMAPGTEAVINQILAPMLVGKDSVAINHRVAEMERPLHGLGRSGPVMYGLSAIDTALWDLAAQRANLPLFKFLGGDSGVLTKYASLMRYGGDTDAVAQNVERARSYGFRTIKLHETTIPAFRAARNAVDFDDKICLDVNCPWTVSEARDVAQEILEDGFHWLEEPIWPPEDFEGLAEVRLEGVPISAGENITTLHEFKLALETEAVDNLQPSVTKCGGVSMMRKIFSLSEVYPVTVIPHCFYWGPGYHATAHLAASCLNSTPLETAFITFAVEPHNLFNSHSDKVTLDDTPGLGFNANWEALDQFIISTNEVTEGHHHHHH”, for which the “soluble on expression in E. coli” value is “soluble”. Turning to “MGSDKIHHHHHHMITRLHEPYLALLQQAMLAATPSGSRVALDLGCGDGSKTRWLRACSASDALIVGVDRDGSVLRAADDMMFIAGDASHLPLRDACIDLVWCIAALNLFPHRHLALREMWRVLRHGGTLVVASAGEYWVRLRNHPAPLIAALPDTPLPLPPADGLDEEWLLLMAAAGFQPRQTQAYLLDGGRLAQVALINSEALTSYLSLPPCASPVADPEPRHLLIVTSARKG”, the “soluble on expression in E. coli” value is on record as “not soluble”. With “MAQHEVITRGGDAFLLKLRESALSSGSMSEEQFFLLIGISSIHSDRVILAMKDYLVSGHSRKDVCEKYQMNNGYFSTTLGRLTRLNVLVARLAPYYTDSVSAIAEAASL”, the “soluble on expression in E. coli” value was “soluble”. The entry for “EHEKGQKLIKTMDQEIDEVAKIGKTIKKPKTVLFEVAALPDIYSFGNGTFLNEMIETIGAKNVLANEKGWLPVTEEAAIAAKPEVILTNVNYMKDPAKEILARKNWESVPAVQNKEVFEIDNMSSSLPNNHITKALKQMAKAVYPEEYKDLKDE” is “not soluble”. “MGHHHHHHSHMAGWIQAQQLQGDALRQMQVLYGQHFPIEVRHYLAQWIESQPWDAIDLDNPQDRAQATQLLEGLVQELQKKAEHQVGEDGFLLKIKLGHYATQLQKTYDRCPLELVRCIRHILYNEQRLVREANNCSSP”: the “soluble on expression in E. coli” value is “not soluble”. The entry for “MSESFDCAKCNESLYGRKYIQTDSGPYCVPCYDNTFANTCAECQQLIGHDSRELFYEDRHFHEGCFRCCRCQRSLADEPFTCQDSELLCNDCYCSAFSSQCSACGETVMPGSRKLEYGGQTWHEHCFLCSGCEQPLGSRSFVPDKGAHYCVPCYENKFAPRCARCSKTLTQGGVTYRDQPWHRECLVCTGCQTPLAGQQFTSRDEDPYCVACFGELFAPKCSSCKRPIVGLGGGKYVSFEDRHWHHNCFSCARCSTSLVGQGFVPDGDQVLCQGCSQAGP” is “soluble”; for “LRLCQVDRCTADMKEAKLYHRRHKVCEVHAKASSVFLSGLNQRFCQQCSRFHDLQEFDEAKRSCRRRLAGHNERRRKSSGE” it is “soluble”; for “MSSDMRVHSWSCSYYLDLEKQWVSGKLTLTPHSLKFIVEKTEEVLVGLPLSSIIEIRKESSLFIFGAITVLEKGQTKHWFSSLQPSRNVVFNVIEHFWRELLLSQPGTAANIPSHVTRGQELIGLMANSQKRMEDTAKDLQQQSEQLDSVLKGLEKMESDLDVADRLLTELETPSWWPFGSKFWKMPAEENLKEGVSSTCEPFGKEGVVITVPAIISERAESHSKLGKLTVLVSALEIYDSCSLLLHRFEKEDVDDIKVHSPYEVSIRQRFIGKPDVAYQLISAKMPEVIPILEVQFSSKIELLEDALVLRNKVFASSAERHAASRPKGCTPHRELPTGGQEGEQLQLQKNLPLFSEGEAQELTQILSKMKGLALDTEAELERQDAALDGITVAVDRATLNVDKQNRRMRKLM” it is “not soluble”. As to “MAGDPMKIYFEAYGCTLNQGETALYVNKLLNEGNTLVSNPKEADLSIIGTCAVIKKTEDHMMARIQNLSRFGKVEVIGCLAPVKGKTMVEDNVSVIEKDRFRSFQEVIDEVSPVNAEIVSGIPINQGCTGKCNFCVSHIARGKLVSRKPEKIAGQIKILLQRGIKEIKITSLDTAAYGKDIGLRLPHLIRTITEIGDDFRLRVGMMEPKNTLEIVDDLISAYRSEKVFKFLHLPVQSGDDYVLEVMNREYTVSDFIRITGKFREAFPDSTLSTDLIIGYYAENDDSFEKTVQLIEKIRPEIINVTKFSPRELTADFEKRPKPTNILKEQDRMIADMHKEILQEKFSNLIGKTEFVLITENGKGRSMIGRDHAYRPIVIMDKTRKFEFHQVEITGFENTSLIGRIIDLEHHHHHH”, the “soluble on expression in E. coli” value is “not soluble”. The entry for “MKELLKELVEKNRKFTADGNVANYIPELDKADKNALGIYVTTLDGQEFFAGDYNTKFTIQSISKIISLMLAILDNGEEYVFSKVGMEPSGDPFNSIRKLETSSRKKPYNPMINAGAIAVASMIKGKDDREKFSRLLNFAKLITEDDSLDLNYKIYIGESDTGFRNYSMAYFLKGEGIIEGNVNEALTVYFKQCSIEGTAKTISTLGKFLANDGVLSNGERILTTRMAKIIKTLMVTCGMYDSSGEFAVRVGIPSKSGVGGGICSVVPGKMGIGVYGPSLDKKGNSLAGGHLLEDLSAELSLNIFLEHHHHHH” is “not soluble”; for “MNSTYQLFIDVTSRKCILAIYKNFKIHTSIIVDTNNNLTDIIVEHLNNLLKITNLQYQDLEAIYLNTGPGSFTGIRVGAIVAKTICTIFNKIKLFINDSLNIIANGKNDVFVYLDAKGNKSYVITITNNIQNEYKIITNKELQNELKNTSLTIIDANQIDYHDLIYNLKFDNFKLTNILDFRLNYVKKPLNLEHHHHHH” it is “not soluble”; for “ANCAVCDSPGDLLDQFFCTTCGQHYHGMCLDIAVTPLKRAGWQCPECKVCQNCKQSGEDSKMLVCDTCDKGYHTFCLQPVMKSVPTNGWKCKNCRICI” it is “soluble”. For the sequence “MAHHHHHHMLPNHSCKGFVDAQGRVFVDGREYPMASGIVATEDVIQANIKAMANTIAKDYKSLSHRDVRLSPGTAATAEAAEAPISYDNPLIIISVLKGSYIFTSDFIRYLGDCGLPHVVDFVRLASYNSDTTSTGQISMLAGLRFENLRGKHVLIVEDVCDSGRTLRFLRDYIMEKFQPKSVKTLVMVNKEQAARKLDFDPEYFCLAGPNKYIVGYGFEVNDRYRDLRHIFILRDGEATRYPAKL”, the “soluble on expression in E. coli” value is listed as “soluble”.

As for “MSLQPVAKTEQPEGGILYDFGKETFGFITLKNLSGKGKIDLYYGESPEEAKDKAYCETLDKLLLEPGQITDLAIRSTSPLHHSDNEYTLENSKAFRYVYITHEPEVQIGEVSMQYEYLPEEYRGNFRCNDEELNCIWEVGAYTMHLTTREFFIDGIKRDRWVWSGDAIQSYLMNYYLFFDSESVKRTIWLLRGKDPVTSHSNTIMDYTFYWFLSVYDYYMYSGDRHFVNQLYPRMQTMMDYVLGRTNKNGMVEGMSGDWVFVDWADGYLDKKGELSFEQVLFCRSLETMALCADLVGDKDGQQKYEKLASALKAKLEPTFWNNQKQAFVHNCVDGRQSDAVTRYANMFSVFFDYLNADKQQAIKQSVLLNDEILKITTPYMRFYELEALCALGEQETVMKEMKAYWGGMLKAGATSFWEKYNPEESGTQHLAMYGRPYGKSLCHAWGASPIYLLGKYYLGVKPTKEGYKEFAVSPVLGGLKWMEGTVPTPNGDIHVYMDNKTIKVKATEGKGYLTIQSREGHHHHHH”, the “soluble on expression in E. coli” value is given as “not soluble”. As for “MSLRLALRQVDGAALALRRCGEAWAGQDVRIAYPPSHGCWLKVAGADGSWQGWLQPRAWLRHMAPELASLASAAGMDDRLSELIAACEAPLSWPVADMPLGRIVAGERREGSQLPQRPMLRMDTPQGEVWLEKAPAPAEAARDRVPGWLPMPLRFLLGDSMVSPSLLRRAKAGDVLLISRPAQTVSCNGRAIGTYQWTEEGIIMEWQNEMAAAAETRPLADLDRLPVRLEFVLQQSEVTLDELRELCRSNVLPLSADAERRVELRANGALLGRGELVQLDGRLGVEVAQWLGGSGDVEEGHHHHHH”, the “soluble on expression in E. coli” value is recorded as “soluble”. Turning to “MASWSHPQFEKGASTSLYKKAGLMDSQRSTLVHWFRKGLRLHDNPALSHIFTAANAAPGRYFVRPIFILDPGILDWMQVGANRWRFLQQTLEDLDNQLRKLNSRLFVVRGKPAEVFPRIFKSWRVEMLTFETDIEPYSVTRDAAVQKLAKAEGVRVETHCSHTIYNPELVIAKNLGKAPITYQKFLGIVEQLKVPKVLGVPEKLKNMPTPPKDEVEQKDSAAYDCPTMKQLVKRPEELGPNKFPGGETEALRRMEESLKDEIWVARFEKPNTAPNSLEPSTTVLSPYLKFGCLSARLFNQKLKEIIKRQPKHSQPPVSLIGQLMWREFYYTVAAAEPNFDRMLGNVYCMQIPWQEHPDHLEAWTHGRTGYPFIDAIMRQLRQEGWIHNLARHAVACFLTRGDLWISWEEGQRVFEQLLLDQDWALNAGNWMWLSASAFFHQYFRVYSPVAFGKKTDPQGHYIRKYVPELSKYPAGCIYEPWKASLVDQRAYGCVLGTDYPHRIVKHEVVHKENIKRMGAAYKVNREVRTGKEEESSFEEKSET”, the “soluble on expression in E. coli” value is reported as “soluble”. Then “MGSDKIHHHHHHAAVGEKLGWPQQKISKIESGEQKRIPAAELDALLEVYGVTDPQIRESLHECARLAKERGWWTRYKDAFPSGLPDFESEASVIRSYECQVIPGILQTPDYADAIFRAYKLREDKEIDRLVKARMERQNILNRVDPPHFMTIIDEAALHRLVGSVEVMRTQLRHLTHMASRHNIDIYVLPFKAGAHAATTGSFMIMDFPDPMDNSIVYVDTPTSILYIEDEEEVREFNVMFSRTQSAALSPTLSMDLVKKVIKSLEE”, with “not soluble”.

With “SADEEEEVKPILQKLQELVDQLYSFRDCYFETHSVEDAGRKQQDVRKEMEKTLQQMEEVVGSVQGKAQVLMLTGKALNVTPDYSPKAEELLSKAVKLEPELVEAWNQLGEVYWKKGDVAAAHTCFSGALTHCRNKVSLQNLSMVLRQLRTDTEDEHSHHVMDSVRQAKLAVQMDVHDGRSWYILGNSYLSLYFSTGQNPKISQQALSAYAQAEKVDRKASSNPDLHLNRATLHKYEESYGEALEGFSRAAALDPAWPEPRQREQQLLEFLDRLTSLLESKGKVKTKKLQSMLGSLRPAHLGPCSDGHYQSASGQKVTLELKPLSTLQPGVNSGAVILGKVVFSLTTEEKVPFTFGLVDSDGPCYAVMVYNIVQSWGVLIGDSVAIPEPNLRLHRIQHKGKDYSFSSVRVETPLLLVVNGKPQGSSSQAVATVASRPQCE”, the “soluble on expression in E. coli” value is “soluble”.

On to “GILRTQHTIRDSELNIKNSKMSDSVNARESNVYMAKLAEQAERYDEMAKYMKDVVEARQESEELTVEERNLLSVAYKNAVGSRRSSWRIISSVEQKEHSRNAEDASKMCGKYRSKVEAELTDICNDILTMLDKHLIPTATSPDSKVFYFKMKGDYHRYISEFSTGDSKQSSAEDALKAYKDATVVAKDLEPTHPIRLGLALNFSVFHYEILNEPRAAIDMAKEAFEMAIEQLDKLSEDCYKDSTLIMQLLRDNLTLWTAD”, for which the “soluble on expression in E. coli” value is on record as “soluble”.

On to “MGSDKIHHHHHHMDTQQLKVVSQQVQEQANFPPEFNRLLNELPDEVKHRIFPHLELVQLELGDVVCEAGSKVRYVYFPLNSIISLLYVMENGASAEIAVVGNDGMVGVALFMGGESTTSRAIVQSAGVAYRLFGQRLKDEFNRHGALLHLLLRYSQILLTQMAQTAVCNRHHSIEQQLCRWLLLSIDRLPDDRVMMTQELIANMLGVRREGVTDAAGKLQRIGIINYSRGNIEVLDRKLLEQTCCECYSVVKQESERLMPLKKFTKK”, for which the “soluble on expression in E. coli” value is “not soluble”. Then “MSQFTLYKNKDKSSAKTYPYFVDVQSDLLDNLNTRLVIPLTPIELLDKKAPSHLCPTIHIDEGDFIMLTQQMTSVPVKILSEPVNELSTFRNEIIAAIDFLITGI”, with “soluble”; and “LQSKLSLPKIPNVIECFDISHLSGTATVGSMVQFRGGRPDKHNYRRFKIESVEGIDDFASIAEVVRRRYSRLLEDKHEMPDLIIIDGGKGQLSSAFQELRKLRVKVPIISIAKREEEIYVPGLKSPLPIKKDEKASLFVQEIRDEAHRFAINYNRLLRQKALIQK”, with “not soluble”.
